Experiment: yeast display, Sf9 membrane polyspecificity reagent, FACS + sequencing; frameworks hold sequencing errors
Procedure, shortened: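 After 36–48 hours of galactose induction, yeast (Saccharomyces cerevisiae BJ5465) displaying a synthetic nanobody library were stained at 4 °C for 1 hour with 10% biotinylated, detergent-solubilized Sf9 membrane reagent. Streptavidin microbeads enriched the stained cells before FACS sorting into low and high (top ~1%) gates on anti-HA and streptavidin fluorescence. Each clone's polyreactivity label reflects its gate of origin.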

Row | Sequence | polyreactivity (PSR sort gate)
1 | QVHLVDSGGGLVQAGGSLGLNCAASGRTLRYNAMGWYRQATGIERELVAAINWNGGSTYYADSVKGRFTISRETAMYTVYLQMNRLKPEDTAVYFCNDDFYHRYDWGQGTQVTVSS | high polyreactivity
2 | QVQLVESGGGLVQAGGSLRLSCAASGSTFIDYAMGWYRQAPGKERELVASITWSGGSTYYADSVKGRFTISRDNAKNTVYLQMNSLKPEDTAVYYCNADVNVGLEVRIVYEYDYWGQGTQVTVSS | low polyreactivity
3 | QVQLVESGGGLVQAGGSLRLSCAASGNTSPFYAMGWYRQAPGKERELVAAISANGGSTTYADSVKGRFTISRDNAKNTVYLQMNSLKPEDTALYYCNALSLLSDGAASVDQVTFDYWGQGTQVTVSS | low polyreactivity
4 | QVQIVESGGVLVQAGGSLRLRCAASGSTFNRYAMGWYRQAPGKERELVASITTSDSTNYADSVKGRFTISRDNAQNTVYLQMNRLKPEDTALYYCNAEVRGVWYTYDYWGQGTQVTVSS | low polyreactivity
5 | QVQLVESGGGLVQAGGSLRLSCAASGNIFSYYAMGWYRQATGIERELVAAISGRGTRTYYADSVKGRFSISRDNAMNTVYLQMNSLNPEDTAVYYCATEVRRLNEFDYWGQGTQVTVSS | high polyreactivity
6 | QVQLVESGGGLVQAGGSLSLSCAASGFIFGGYAMGWYRQAPGKERELVAAITWSGGNTYYADSVKGRFTISRDNAKNTVYLQMNSLKPEATAVYYCAADYWTKYVYWGQGTQVTVSS | low polyreactivity
7 | QVQLVESGGGLVQAGGSLRLSCAASGFTFSRYAMGWYRQAPGKERELVAAITLGGGNTYYADSVKGRFTISRDNAKYSVYLQMNSLKREDTSVYYCNAKFGIFGYRSGGYDYWGEGTQVTVSS | high polyreactivity
8 | QVQLVESGGGLVQAGGSLRLSCAASGIIFKSYAMGWSRQAPGKERELVAAITKRGGSTYYADSVKGRFTISRDNAKNTVYLQMNSLKPEDTAVYYCAADDGVGNTDDYWGQGTQVTVSS | high polyreactivity
9 | QVQLVESGAGLVQAGGSLRLSCAASGITFYDNDMGWYRQPPGKERELVAGITGTTVGTYYADSVKGRFTISRDIAKNTVYLQMNSLKPEDTAVYYALLTVVVPYQYYSLSLNTLDSWGQGTQVTVSS | low polyreactivity
10 | QVQLVESGGGLVQAGGRLSLSCAASGSIFRPNPMGWYRQAPGKERELVAAITWSGDSTYYADSVKGRFTISRDNAKNTVYLKMNSLKPEDTAVYYCAADFTYQGSSANDYWGQGTQVTVSS | low polyreactivity
11 | QVQLVESGGGLVQAGGSLRLSCAASGITFWKYTMGWYIHAPGKERELVASITWSGGSTYYADSVKGRFTISRDNAKNTVYLQMNSLKPEDTAVYYCNAEYLRIDLDYWGQGTQVTVSS | low polyreactivity
12 | QVQLVESGGGLVQAGGSLRLSCAASGSIFSWYAMGWYRQAPGKERELVAAIRWSGGRTYYADSVKGRFTISRDNAKNTVYLQMNSLKPEDTAVYYCAADFYPDEYYYWGQGTQVTVSS | high polyreactivity
13 | QVQLVESGGGLVQAGGSLRLSCAASGITFKWYAMGWYRQAPGKERELVAAISWSTGSTYYADSVKGRFTISRDNAKNTVYLPMNSLKPEDTAVYYCAARVKRPQTGYDRRYGYWGQGTQVTVSS | high polyreactivity
14 | QVQLVESGGGLVQAGGSLRLSCAASGSIFGDNAMGWYIQAPGKERELVAAITSSGVRTYYADSVKGRFTISRDNAKNTVYLQMNSLKPEDTAVYYCNADRFRRIRWYAITRSDYWGQGTQVTVSS | high polyreactivity
15 | QVQLVESGGGLVQAGGSLRLSCAASGIIFSSYAMGWYRQAPGKERELVAAITRGGSTNYADSVKGRFTISRDNAKNTVYLQMNSLKPEDTAVYYCNALWRAYRNYHYIVKNDYWGEGTQVTVSS | high polyreactivity
16 | QVQLQESGGGLVQAGGSLRLSCAASGSIFEELDMGWYRQAPGKEREFVAANGTGSTTYYADSVKGRFTISRDNAKNTVYLQMNSLKPEVTAVYYCAVTYSVYLPFRYWGQGTQVTVSS | high polyreactivity
17 | QVQLVESGGGLVQAGGSLRLSCAASGSTFWVYTMGWYRQAPGKERELVAAISYGGGRTYYADSVKGRFTISRDNEKNTVYLQMNSLKPEDTAVYYCNKDYWRDVAQDVLDGYEYWGQGTQVTVSS | low polyreactivity
18 | QVQLVESGGGLVQAGGSLRLSCAASGFIFWRYAMGWYRQAPGKERELVAAITSGGRTNYADSVKGRFTISRDNAKNTVYLQMNSLKPEDTAVYYCAADRSWSPRAGWYDYWGQGTQVTVSS | high polyreactivity
19 | QVQLVESGGGLVQAGGSLRLSCAASGRTFADYAMGWYRQAPGKERELVATIRKSTGTTYYADSVKGRFTISRDNAKNTVYLQMNSLKPEDTAVYYCAAARSRYSRWRVEYWGQGTQVTVSS | high polyreactivity
20 | QVQLVESGGGLVQAGGSLRLSCAASGYIFGGYAMGWYRQAPGKERELVAGISIGVGSTYYADSVKGRFTISRDNAKNTVYLQMNSLKPEDTAVYYCNRDSVGYDYWGQGTQVTVSS | low polyreactivity
21 | QVQLVESGGGLVQAGGSLRLSCAASGIIFYEYAMGWYRQAPGKERELVATITSGGSTNYADSVKGRFTISRDNAKNTVYLQMNSLKPEDTAVYYCNADWWWGYGYWGQGTQVTVSS | low polyreactivity
22 | QVQLVESGGGLVQAGGSLRLSCAASGSTFTGNVMGWYRQAPGKERELVAAIRDSGGSTYYADSVKGRFTISRDNAKNTVYLQMNSLKPEDTAVYYCDAEYLYGSYYGYYYWGQGTQVTVSS | low polyreactivity

Row | Sequence | polyreactivity (PSR sort gate)
23 | QVQLVESGGRLVQAGGSLRLSCAASGSIFYRYAMGWYRQAPGQERELVATINSDGGDTYYADSVKGRFTISRDNAKNTVSLQMNSLKPEDTAVYYSAKGYYVLYRAWYDSYDYWGQGTQVTVSS | low polyreactivity
24 | QVQLEESGGGLVQAGGSLRLICAASGSIFDSNSMGWYRQAPGKVRELVAGISRGGGSTYYADSVKGRFTISRDNAKNTVYLQMNSLKPEDTAVYYCNVLTYRWLYARRYEYWGQGTQVTVSS | high polyreactivity
25 | QVQLQERAAWCRRAGSLRLSCAASGNISDYYFMGWYRQAPGKERELVAAIAPGSNTYYADSVKGRFTISRDNAKNTVYLQMNSLKPEDTAVCFCGANSTQYTWFDYWGQGTQVPVSS | low polyreactivity
26 | QVEIVESGGGLVQAGGSLRLSCAASGSIFRWNAMGWYRQAPGKERELVAAISKRGTNTYYADSVKCRFTISRDNAKNTVYLQMNSLKPEDTAVYYCNAQGHRQNGLGDYWGQGTQVTVSS | high polyreactivity
27 | QVQLVESGGGLVQAGGSLRLSCAASGSTFDNYAMGWYRQAPGKERELVAAISYSGGSTHYADSVKGRFTISRDNAKNTVYLQMNSLKPEDTAVYYCAADVSGDKGSIHMNYWGQGTQVTVSS | low polyreactivity
28 | QVHLVESGGGLDQAGGSLRLSCAASGSTDGPYARGWSRQATGKERELVATINSSGSTNYADSLKGRFTISRDNAKNTVYLQMHSLKTEDTAVYYSASLHSYYWNDYWGQGTQVTVSS | low polyreactivity
29 | QVQLVESGGGLVLAGGSLRLSCAASGGIYTTYAMGWYREAPGKERELVAAISRSGGSTYYADSVKGRFTISRDNAKNTVYLQMNSLKPDDTAVYYCAADQYMCRAWRGRVYYWGQGTQVTVSS | high polyreactivity
30 | QVQLVESGGGLVQAGGSLRLSCAASRSIFGIYTMGWSRQEPGKERELVAAIKSGGSTNYADSVKGRFTITRDNAKNTVYLQMNSKKPEDTAVYYCNAYIHPPGPRVYSREYDYWGQGTQVTVSS | low polyreactivity
31 | QVQLVESVGGLVQAGGSLRLSCAASGFTFVYNAMGWYRQAPGKEREMVAAISSRGGSTFYADSVKGRFTISRDNAKNTVYLQMNSLKPEDTAVYYCNAVPGWTYDYWGQGTQVTVSS | high polyreactivity
32 | QVQLVESGGGLVQARGSLRLSCAASGFTFSDYVMGWYRQAPGKERELVAVITSGSSTYYADSVKGRFTISRDNAKNTVYLQMNSLKPEDTAVYYCNADPDDGYFSDFDYWGQGTQVTVSS | low polyreactivity
33 | QVQLVESGGGLVQAGGSLRLSCAASGFTFVRNVMGWYRQAPGKERELVAAINTGGTTDYADSVKGRFTISRDNAKNTVYLQMNSLKPEDTAVYNCNADYDSQYHYLLRYDYWGQGSQVTVSS | low polyreactivity
34 | QVQLVESGGGLVQAGGSLRLSCAASGSIFYPYTMGWYRQAPGKERELVAAISGGCRTYYADSVKGRFTISRDNAKNTVYLQMNSLKPEDTAVYYCAARYGYRWLVGKYEYWGQGTQVTVSS | high polyreactivity
35 | QVQLQESGGGLLQAGGSLRLSCAASGNIFLSIFMGWYRQAPGKEREFVAGIGSGTNTNYADSVKGRFTISRDNAKNTVYLQMNSLKPEDTAGYYSAAGRFGLYYHGYWGLGTQVTVSS | high polyreactivity
36 | QVQLVESGGGLVQAGGSLRLSCAASGGTFIYYAMGWYSQAPGKERELVAAISSGGSTYYADSVKGRFTISRDNAKNTVYLQMNSLKPEDTAVYYCAKRRAVQIVDLEYWRQGTQVTVSS | low polyreactivity
37 | QVQLVESGGGLVQAGGSLRLSCAASGSIFENYAMGWYRQAPGKERELVAAITSSGASTYYADSVKGHFTISRDNEKNTVYIQMNILKPEDTAVYYCAADSAFYDEYQEDYWGQGTQVTVSS | low polyreactivity
38 | QVQLVESGGGLVQAGGSLRLTSADTGFNFGSYAMGWSRQAHGKEREFVAAISSNGGNTYYADSVKGRFTISRDNAKNTVYLEINSLKPEDTAVSYCAARYPSGTRKWYGYWGQGTQVTVSS | high polyreactivity
39 | QVQLVESGGGLVQAGGSLRVSCAASGYTFLRYAMGWYRQAPGKERELVAAISWSTGSTYYADSVKGRFTISRDNAKNTVYLQMNSLKPEDTAVYYCAAAGRHSGGRFYYWGQGTQVTVSS | high polyreactivity
40 | QVQLVESVGGLVQAGGSLRLSCAASGFILRVNDMGWYRQAPGKERELVAAISQGDGSTYYADSVKGRFTISSDNAKNSVYLQMNSLKPEDNAVYYCNAELYRDLGGYDHWGQGTQVTVSS | low polyreactivity
41 | QVQLVESGGGLVQAGGSLRLSCDASGGIFRFNSMGWYRQAPGKERELVAGISSTYYADSVKGRFTISRDNAKNTVYLQMNSLKPEDTAVYYCAAAGPEEHGYTYPGNNQMESWGQGTQVTVSS | low polyreactivity
42 | QVQLVESGGGLVQAGGSLRLSCAASGSIFAYNGMGGYRQPPGKERELVAAISRRGGSTTYADSVKGRFTISRDNAKNTVYLQMNSLKPEDTAVYYCNTGAWSVRKMYYWGQGTQVTVSS | high polyreactivity
43 | QVQLVESGGGLVQAGGSLRISCAASGIIFPYYVMGWYRQAPGKERELVAAINSGGRTYYADSVKGRFTISRDNAKNTVYLQMNSLKPEDTAVYYCARDLYYVYSFAPYRYEYWGQGTQVTVSS | low polyreactivity
